From patent US20030228654A1, “Method for producing antimicrobial protein and fusion protein” (KABUSHIKI KAISHA TOYOTA CHUO KENKYUSHO, priority 2000, published 2003)

Tested on: Ceratocystis fimbriata
Assay: Assay of antimicrobial activity: growth inhibition of Ceratocystis fimbriata spore suspension in 96-well microplate, absorbance at 415 nm
Format: cell-based
Conditions: Factor Xa-cleaved, concentrated protein solution 30 μl per well; MES buffer pH 6; 26° C.; absorbance 415 nm, 48 hours vs 30 minutes
Description: As shown in SEQ ID No: 1, 2 or 4, the fusion proteins of Examples 1 and 2 and Comparative Example 2 thus dialyzed retained the recognition sequence of a protease Factor Xa in between thionin and the partner protein. Then, the fusion protein was subjected to cleavage with Factor Xa of 30 μg per 1 mg of each fusion protein described above at 30° C. overnight.
The protein solution recovered by the cleavage procedures was concentrated to 30 μl using Microcon-3 (MWCO: 3000) as a concentration unit with a filtration membrane. Such great number of concentrated sample solutions were divided at 30 μl each in the individual wells of a 96-well microplate, followed by addition of 10 μl of 200 mM MES [2-(N-morpholino)ethanesulfonic acid] buffer at pH 6 and 60 μL of a spore suspension of Ceratocystis fimbriata (100,000 spores per 1 ml-80% potato dextrose broth). Then, the resulting mixtures were cultured at 26° C. […]
Then, the absorbance 30 minutes and 48 hours later was measured at 415 nm with a microplate reader of Model 3550. The growth inhibition was determined by the following formula (1). Herein, A represents the value obtained by subtracting the absorbance measured 30 minutes later from that measured 48 hours later in each concentrated sample solution, and B represents the same value in a solution not containing the sample. […]

B1: Example 2: Fusion protein of barley thionin and PDI from Fumicola insolens (SEQ ID No: 2); refolded, cleaved with Factor Xa (protein)
chain: EKHMIEGRMKSCCRSTLGRNCYNLCRVRGAQKLCAGVCRCKLTSSGKCPTGFPKMIEGRTLALVSNSDEPDTVKYCNLGCRASMCDYMVNAAADDEEMKLYLENCGDACVNFCNGDAGLTSLTA
modifications: Hordeum vulgare
- Growth inhibition (%): 99.1%
